The values that follow come from patent US20090232803A1 (Novartis, published 2009).

For assay [1], the target named is T1, recombinant human IL-1β (human, UniProt P01584 117-269).
T1 construct: mature; it is entered under this molecule; also called human interleukin 1 beta; huIL-1β
As to the kind of experiment: BIAcore SPR; AAL160 immobilised, recombinant IL-1β 0.5 to 12 nM, 1:1 model, n = 15. How it is done:
Data analysis is performed using the BIAevaluation software.
(Surface plasmon resonance follows binding to a sensor surface in real time, without labels.)

For assay [2], the target named is T2, Mouse IL-1β (mouse, UniProt P10749 118-269).
T2 construct: also called murine IL-1β
T2 sequence (looked up): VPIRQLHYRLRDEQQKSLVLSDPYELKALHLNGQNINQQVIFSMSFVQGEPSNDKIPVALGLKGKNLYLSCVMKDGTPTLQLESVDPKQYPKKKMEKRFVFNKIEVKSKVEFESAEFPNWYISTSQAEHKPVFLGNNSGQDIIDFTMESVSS
As to the kind of experiment: Biacore, AAL160 immobilised.

Assay [3] has as its target T3, Human IL-1α (human, UniProt P01583 113-271).
T3 sequence (looked up): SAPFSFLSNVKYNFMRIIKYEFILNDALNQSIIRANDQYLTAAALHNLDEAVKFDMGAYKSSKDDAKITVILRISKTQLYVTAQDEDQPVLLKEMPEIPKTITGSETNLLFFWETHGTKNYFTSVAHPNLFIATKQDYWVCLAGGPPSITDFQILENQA
The assay is described as follows: Biacore, AAL160 immobilised.

Assay [4] has as its target T4, Rat IL-1β (rat, UniProt Q63264 117-268).
T4 sequence (looked up): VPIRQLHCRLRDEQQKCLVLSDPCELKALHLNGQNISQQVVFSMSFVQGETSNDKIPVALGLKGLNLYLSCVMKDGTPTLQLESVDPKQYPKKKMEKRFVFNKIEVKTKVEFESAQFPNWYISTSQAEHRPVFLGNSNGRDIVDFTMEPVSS
The assay is described as follows: Biacore, AAL160 immobilised.

For assay [5], the target named is T5, Human IL-1Ra (human, UniProt P18510 26-177).
T5 construct: also called IL-1 receptor antagonist
The assay is described as follows: Biacore, AAL160 immobilised.

The target in assay [6] is T2, Mouse IL-1β. As to the kind of experiment: Biacore; AAL160 immobilised, cytokine at 8 nM (or 20 nM in the case of IL-1β).
Assay [7] concerns the target T3, Human IL-1α. The description is as above.
Assay [8] has as its target T1, recombinant human IL-1β. Described as above.
The next assay has as its target T6, Cynomolgus IL-1β (cynomolgus monkey, UniProt P79182 117-268).
T6 construct: also called cynomolgus monkey IL-1β
T6 sequence (looked up): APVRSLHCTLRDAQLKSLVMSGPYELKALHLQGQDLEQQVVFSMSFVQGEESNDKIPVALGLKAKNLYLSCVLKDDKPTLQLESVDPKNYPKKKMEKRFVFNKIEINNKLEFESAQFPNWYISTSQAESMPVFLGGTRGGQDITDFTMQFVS
The description is as above.

The target in assay [9] is T4, Rat IL-1β. The assay is described as above.
The target of assay [10] is T5, Human IL-1Ra. The description is as above.
Assay [11] has as its target T1, recombinant human IL-1β. The assay is described as follows: cell-based or functional assay.
The target in assay [12] is T1, recombinant human IL-1β. As to the kind of experiment: Biacore competition: AAL160 immobilised on the chip, recombinant human IL-1β (8 nM) injected with increasing concentrations of soluble receptor type I; readout is % binding of IL-1β to AAL160 (competitor: AAL160).

T5 sequence (P18510 26-177 limits assumed): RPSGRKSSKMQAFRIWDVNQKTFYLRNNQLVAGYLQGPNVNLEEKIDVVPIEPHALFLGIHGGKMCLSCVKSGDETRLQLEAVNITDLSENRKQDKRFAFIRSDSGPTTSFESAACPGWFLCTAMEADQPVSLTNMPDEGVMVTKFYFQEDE

B1: AAL160 antibody (human IgG1/κ monoclonal antibody to human IL-1β) (antibody, V domains shown)
VH: EVQLVQSGAEVKKPGESLKISCKGSGYSFTSYWIGWVRQMPGKGLEWMGIIYPSDSDTRYSPSFQGQVTISADKSISTAYLQWSSLKASDTAMYYCARYTNWDAFDIWGQGTMVTVSS
VL: EIVLTQSPATLSLSPGERATLSCRASQSVSSYLAWYQQKPGQAPRLLIYDASNRATGIPARFSGSGSGTDFTLTISSLEPEDFAVYYCQQRSNWMFPFGQGTKLEIK
notes: It was purified from hybridoma supernatant on protein A; also called NVP AAL 160 NX-1; hybridoma # 476
What is called Kd is a measure of binding affinity in units of concentration. The term koff denotes the first-order rate constant of dissociation. As usually defined, the kon is a measure of how fast the partners come together. With B1, the Kd with recombinant human IL-1β [1] came out at 397 pM. Also, in the assay with recombinant human IL-1β [1], the koff was found to be 0.000153 s⁻¹. In the assay with recombinant human IL-1β [1], the kon was 391000 M⁻¹ s⁻¹. Further, the binding result in the assay with Mouse IL-1β [2], with Human IL-1α [3], with Rat IL-1β [4] and with Human IL-1Ra [5] was “no binding (tested: 8 nM (or 20 nM in the case of IL-1β))” in each case. In addition, the “Percent of total binding” value came out at 2.8% with Mouse IL-1β [6]; 0.7% with Human IL-1α [7]; 100% in the assay with recombinant human IL-1β [8]; 96.4% in the assay with Cynomolgus IL-1β; 3% with Rat IL-1β [9]; 1.2% with Human IL-1Ra [10]. In the assay with recombinant human IL-1β [11], the “IC50, IL-6 secretion, Recombinant (primary human dermal fibroblasts stimulated with recombinant IL-1β)” value amounted to 340 pM. Besides, in the assay with recombinant human IL-1β [11], the “IC50, IL-6 secretion, cond. Medium (primary human dermal fibroblasts stimulated with conditioned medium of LPS-stimulated human PBMCs, natural IL-1β)” value amounted to 600 pM. Further, the “IC50, PGE2 production, cond. Medium (primary human dermal fibroblasts stimulated with conditioned medium of LPS-stimulated human PBMCs, natural IL-1β)” value in the assay with recombinant human IL-1β [11] came out at 790 pM.

B2: recombinant human soluble IL-1 receptor type I (receptor, UniProt P14778 18-332, looked up)
chain: LEADKCKEREEKIILVSSANEIDVRPCPLNPNEHKGTITWYKDDSKTPVSTEQASRIHQHKEKLWFVPAKVEDSGHYYCVVRNSSYCLRIKISAKFVENEPNLCYNAQAIFKQKLPVAGDGGLVCPYMEFFKNENNELPKLQWYKDCKPLLLDNIHFSGVKDRLIVMNVAEKHRGNYTCHASYTYLGKQYPITRVIEFITLEENKPTRPVIVSPANETMEVDLGSQIQLICNVTGQLSDIAYWKWNGSVIDEDDPVLGEDYYSVENPANKRRSTLITVLNISEIESRFYKHPFTCFAKNTHGIDAAYIQLIYPVT
notes: soluble; also called soluble IL-1 type I receptor; receptor I
Usually IC50 stands for the concentration that gives 50% inhibition. For the molecule B2, the IC50 with recombinant human IL-1β [12] was 3400 pM.
